Source: publication PMC4139162

Biological target: KcsA potassium channel, L90C, chymotrypsin-truncated (UniProt P0A334)
Test: crystal structure

“KcsA potassium channel, L90C, chymotrypsin-truncated (from UniProt P0A334 1-160) (natural protein)” was tested, and the stoichiometry N was 4.
